Data: patent publication US20240417754

Test system: T1, Pf80 large serine recombinase
T1 sequence: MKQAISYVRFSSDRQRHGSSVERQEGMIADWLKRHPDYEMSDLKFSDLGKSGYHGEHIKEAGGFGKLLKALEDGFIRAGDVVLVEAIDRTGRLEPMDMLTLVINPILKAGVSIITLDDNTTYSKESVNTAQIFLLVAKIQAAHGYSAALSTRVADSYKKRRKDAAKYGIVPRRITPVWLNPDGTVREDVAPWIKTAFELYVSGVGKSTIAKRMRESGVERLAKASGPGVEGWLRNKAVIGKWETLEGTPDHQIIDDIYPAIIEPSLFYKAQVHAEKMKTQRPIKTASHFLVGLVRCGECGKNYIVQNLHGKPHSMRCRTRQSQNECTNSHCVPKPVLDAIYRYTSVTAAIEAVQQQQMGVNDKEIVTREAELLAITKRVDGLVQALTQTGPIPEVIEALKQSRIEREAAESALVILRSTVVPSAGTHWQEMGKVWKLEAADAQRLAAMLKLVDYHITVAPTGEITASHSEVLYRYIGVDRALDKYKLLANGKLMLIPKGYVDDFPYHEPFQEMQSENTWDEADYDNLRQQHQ
Test: cell_activity
Settings: share of unique integration reads at predicted site

Pf80 attH (FKBP2 exon) showed an on-target integration read share of 34.3%.
